# Source: patent US20230355660A1
# Square brackets hold non-standard residues; d marks the D form. Ends that are not written are not given here.
# Molecular target: mAB anti V5 (Thermo Scientific), mouse anti V5 antibody
# Experiment: ELISA: 1 µg/ml mouse anti V5 antibody with increasing amounts of SADC, complexes captured on streptavidin plate via biotinylated SADC peptide, bound IgG detected with anti mouse IgG-HRP
row,EC50,Binder
1,0.0555 µg/mL,"IPNPLLGLDGGSGDYKDDDDKGK[BiotinAca]GC (peptide, part only; not given: haptoglobin scaffold, part only, also: peptide conjugated to haptoglobin scaffold, copy number not given here) [SADC with haptoglobin scaffold carrying tagged V5 peptide]"
2,0.0279 µg/mL,"IPNPLLGLDGGSGDYKDDDDKGK[BiotinAca]GC (peptide, part only; not given: albumin scaffold, part only, also: peptide conjugated to albumin scaffold, copy number not given here) [SADC with albumin scaffold carrying tagged V5 peptide]"
3,0.007 µg/mL,"IPNPLLGLDGGSGDYKDDDDKGK[BiotinAca]GC (peptide, part only; not given: transferrin scaffold, part only, also: peptide conjugated to transferrin scaffold, copy number not given here) [SADC with transferrin scaffold carrying tagged V5 peptide]"
